We go through one protein from paper PMC3535332 (Nature Communications, 2012).

Substrate in data set [1]: NC(=O)c1ccc[n+]([C@@H]2O[C@H](COP(=O)(O)OP(=O)(O)OC[C@H]3O[C@@H](n4cnc5c(N)ncnc54)[C@H](O)[C@@H]3O)[C@@H](O)[C@H]2O)c1
Description: purified protein. The following applies: ATP as donor, 20 mM MgCl2, 100 mM Tris-HCl pH 8.0, 37 °C.

Substrate in data set [2]: Nc1ncnc2c1ncn2[C@@H]1O[C@H](COP(=O)(O)OP(=O)(O)OP(=O)(O)O)[C@@H](O)[C@H]1O
Description: purified protein. As to conditions: 5 mM NAD+, 40 mM MgCl2, 100 mM Tris-HCl pH 8.0, 37 °C.

The data set “SEC” deals with the molecule itself. Description: SEC. (SEC sorts molecules by how far they enter the pores of the column.)

B1: purified C5orf33 protein (His-tagged Δ62C5orf33 protein) (enzyme, human, UniProt Q4G0N4-1 63-442, looked up)
chain: DGGFRPSRVVVVAKTTRYEFEQQRYRYAELSEEDLKQLLALKGSSYSGLLERHHIHTKNVEHIIDSLRNEGIEVRLVKRREYDEETVRWADAVIAAGGDGTMLLAASKVLDRLKPVIGVNTDPERSEGHLCLPVRYTHSFPEALQKFYRGEFRWLWRQRIRLYLEGTGINPVPVDLHEQQLSLNQHNRALNIERAHDERSEASGPQLLPVRALNEVFIGESLSSRASYYEISVDDGPWEKQKSSGLNLCTGTGSKAWSFNINRVATQAVEDVLNIAKRQGNLSLPLNRELVEKVTNEYNESLLYSPEEPKILFSIREPIANRVFSSSRQRCFSSKVCVRSRCWDACMVVDGGTSFEFNDGAIASMMINKEDELRTVLLEQ
By Km is commonly meant the substrate concentration at which the rate is half of its maximum. The term stoichiometry N denotes the number of molecules, sites or subunits per partner or assembly. Regarding B1, the values for the Km in the data set “purified protein [1]” and in “purified protein [2]” were 22 ± 1 µM and 1700 ± 300 µM, respectively. Further, in “SEC”, the “stoichiometry N” value is 2.
